These results are taken from the DeepSol protein solubility set.

A short description of this data set: soluble on expression in E. coli; label from the status in PepcDB or PDB records.
On to “MSSASAHHKKDLLDQVNNPVFLQDLRQQMIKFAVLQLASLPHAEDVVQDALASAFQHLDSFTGRAAFKTWVFAILKNKIIDLIRQKSRLVSMSELFKDEESELSIDALFDASGHWHKYEAPQAWLSPEEMMEQQDFWIIFDACLNHLPAKYAQVFMLREVIELNSSEICEKLELTVSHFNVLMYRSRTRLRECLENKWLLQEDCSC”, for which the “soluble on expression in E. coli” value is listed as “not soluble”. As to “MGSDKIHHHHHHMLRVWVGSKPVGVLDRSGRRGSTFVYDVKADDRDAVSLTMPKRTESWNSEFGLLPIFDMNLPEGALEGKIRTAFAKALGHFDDLDLLAVVGRSQIGRIRFTGMDEELVEDVPFRSIDDLLRARRAGDLYNDLLETYAVHSGVAGVQPKVLVRAREDDPSDGRQSLSVRGATHIVKMWDPDEYPELAANEFFCLMAAQQVGLEVPDFRLSEDGLALVVERFDLTDGSYSGYEDFCALNGVTSKDKYNGGYETKLFKRIKEFVSPENAVGSLEVAFRLFVINCGIRNGDAHLKNFGVVYKDAESPVRLAPVYDLITTRAYIKNDAMALTLDGSTAWPDRKKLDRLGVTRANLRPGRVAEIVEQTCDALSDVSGRVKAYFEESSFPEVGEKMLREWQAGVGSLSEGKTIHLMEALDATSARND”, the “soluble on expression in E. coli” value is listed as “not soluble”.

Regarding “MGSDKIHHHHHHMTTTYPDFLGNSSLQTDTEHWEMEGGAQEVSVTYVLDTSVLLSDPLSLTRFAEHDVVLPIVVITELEAKRHHPDLGFFARQALRMLDELREIHGDLSKPLPIGDEGGHIHVELNHQNTGSLPVGFRLGDNDTRILAVAKNLQEEGHNVVLVSKDLPMRIKASASGIAAQEYRAALARDRGYTGMTHANITDDQLSELYDTGEVRIEELEKLPVNHGFTLKSNSGSALGRMNSDKIIELVPGDQQVFGISGRSAEQRVAIDLLNDDAVGIVSIGGPAGTGKSALALCAGLEAVMERRIQRKIIVFRPLFAVGGQELGYLPGDQEEKMGPWAQAVFDTLSSMVSQNIIDEALSRGLIEVLPLTHIRGRSLHDAFVIVDEAQSLERNVLLTMLSRIGQNSRVVLTHDVAQRDNLRVGRYDGIVSVVEALKDHELFGHITLQRSERSRIAELVTQVLDAPSL”, the “soluble on expression in E. coli” value was “not soluble”.

As for “MSLRIVIAGAGEVGYHLAMSLAPNHDVIIIEKDVSRFERVSELDVVAINGNAANMKVLRDAGVERADVFLAVTGNDEVNLLSGLAAKKVGAKNVIVRVENPEYVDRPIVKEHPLGYDVLICPQLSLAQEAARLIGIPGAIEVVTFSGGKVEMIELQVMEGSKADGKAIADLYLPQNVVIASIYRNGHIEIPRGDTVLRAGDRVAIVSKTEDVEMLKGIFGPPVTRRVTIFGAGTIGSYTAKILAKGMTSVKLIESSMERCEALSGELEGVRIVCGDATDIEFLIEEEIGKSDAVLAATESDEKNLLISLLSKNLGARIAIAKVEKREYVKLFEAVGVDVALNPRSVTYNEVSKLLRTMRIETLAEIEGTAVVEVVVRNTRLVGKALKDLPLPKDAIIGAIVRGNECLIPRGDTTIEYEDRLLVFAKWDEIEKIEEIFREGHHHHHH”, the “soluble on expression in E. coli” value is on record as “soluble”. The same measure for “MENFIDTLENWRDQKQIISVICKDGIKIDDSIITSFKASKDVGISNGLRIQLTFQEINFKAIVGQTDVSAATGRTSTTNDGGATSKKNTGNTTTSLGSPMLTCKELFSYSASELSDEALKARVTCSKSVSVKNGESTFTA”: “not soluble”; for “MDDYMVLRMIGEGSFGRALLVQHESSNQMFAMKEIRLPKSFSNTQNSRKEAVLLAKMKHPNIVAFKESFEAEGHLYIVMEYCDGGDLMQKIKQQKGKLFPEDMILNWFTQMCLGVNHIHKKRVLHRDIKSKNIFLTQNGKVKLGDFGSARLLSNPMAFACTYVGTPYYVPPEIWENLPYNNKSDIWSLGCILYELCTLKHPFQANSWKNLILKVCQGCISPLPSHYSYELQFLVKQMFKRNPSHRPSATTLLSRGIVARLVQKCLPPEIIMEYGEEVLEEIKNSKHNTPRKKTNPSRIRIALGNEASTVQEEEQDRKGSHTDLESINENLVESALRRVNREEKGNKSVHLRKASSPNLHRRQWEKNVPNTALTALENASILTSSLTAEDDRGGSVIKYSKNTTRKQWLKETPDTLLNILKNADLSLAFQTYTIYRPGSEGFLKGPLSEETEASDSVDGGHDSVILDPERLEPGLDEEDTDFEEEDDNPDWVSELKKRAGWQGLCDR”: “soluble”.
